Square brackets hold non-standard residues; d marks the D form. Phe(3-F) = N[C@@H](Cc1cccc(F)c1)C(=O)O; Phe(4-F) = N[C@@H](Cc1ccc(F)cc1)C(=O)O; Tic = O=C(O)[C@@H]1Cc2ccccc2CN1; Cha = N[C@@H](CC1CCCCC1)C(=O)O; Phe(ol) = N[C@H](CO)Cc1ccccc1; Phg = N[C@H](C(=O)O)c1ccccc1; Nle = CCCC[C@H](N)C(=O)O; Nva = CCC[C@H](N)C(=O)O; Abu = CC[C@H](N)C(=O)O
The substances below were run against Cyclin A (UniProt P20248) (assay: cyclin A binding assay, IC50 (immobilised ligand not given)). Settings: not given.

Row | IC50 | Substance
1 | 8.15 µM | Ac-Arg-Arg-Leu-Asn-Phe-NH2 (peptide)

What follows are substances tested against Cyclin A (UniProt P20248) (assay: competitive ELISA: cyclin A binding to immobilised biotinyl-Ahx-HAKRRLIF-NH2). Settings: not given.

Row | Relative activity, Cyclin A Binding (relative to HAKRRLIF-NH2) | Substance
2 | 0.4 | H-Dab-Ala-Lys-Arg-Arg-Leu-Ile Phe-NH2 (peptide)
3 | 2 | H-Hse-Ala-Lys-Arg-Arg-Leu-Ile Phe-NH2 (peptide)
4 | 0.2 | H-Thi-Ala-Lys-Arg-Arg-Leu-Ile Phe-NH2 (peptide)
5 | 0.2 | H-Pya-Ala-Lys-Arg-Arg-Leu-Ile Phe-NH2 (peptide)
6 | 2.5 | H-AAKRRLIF-NH2
7 | 1 | H-FAKRRLIF-NH2

These substances were tested against Cyclin D1 (UniProt P24385) (assay: competitive ELISA: cyclin D1 binding to immobilised biotinyl-Ahx-p21(149-159)). Settings: not given.
Cyclin D1, sequence (P24385 whole entry): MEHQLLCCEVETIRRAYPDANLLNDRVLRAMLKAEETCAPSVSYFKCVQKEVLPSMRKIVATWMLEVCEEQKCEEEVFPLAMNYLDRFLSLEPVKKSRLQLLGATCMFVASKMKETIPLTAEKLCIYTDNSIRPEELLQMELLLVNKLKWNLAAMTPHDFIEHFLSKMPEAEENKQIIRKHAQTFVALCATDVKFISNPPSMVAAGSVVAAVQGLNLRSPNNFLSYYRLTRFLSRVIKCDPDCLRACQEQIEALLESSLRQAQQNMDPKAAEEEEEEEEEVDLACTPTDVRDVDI

Row | IC50 | Substance
8 | > 200 µM | P27 peptide H-Ser-Ala-Abu-Arg-Asn-Leu-Phe-Gly-NH2
9 | 134 µM | P21 N-terminus peptide KAURRLFG-NH2
10 | 20 µM | P21 N-terminus-LIF hybrid KAURRLIF-NH2 (peptide)

Each substance was assayed against Cyclin A (UniProt P20248) (assay: competitive cyclin A binding ELISA; competitor: immobilised biotinyl-Ahx-HAKRRLIF-NH2; at 100 µM test peptide). Settings: not given.

Row | Maximum Inhibition (%) | Substance
11 | 80% | H-Asn-Leu-Phe-Gly-NH2 (peptide)
12 | 50% | H-Arg-Leu-Ile-Phe-NH2 (peptide)

What follows are substances tested against Cyclin A (UniProt P20248) (assay: competitive cyclin A binding ELISA; competitor: immobilised biotinyl-Ahx-His-Ala-Lys-Arg-Arg-Leu-Ile-Phe-NH2 (SEQ ID No. 186)). Settings: scale: relative to H-His-Ala-Lys-Arg-Arg-Leu-Ile-Phe-NH2.

Row | Relative activity, Cyclin A Binding | Substance
13 | 0.5 | H-HAKRRL[Cha]F-NH2
14 | < 0.1 | H-His-Ala-Lys-Arg-Arg-Leu-Ile-1Nap-NH2 (peptide)
15 | 0.1 | H-HAKKRLIF-NH2
16 | < 0.1 | H-His-Ala-Lys-Nle-Arg-Leu-Ile-Phe-NH2 (peptide)
17 | < 0.1 | H-HAKRPLIF-NH2
18 | 0.8 | H-HAKRRLI[Phe(3-F)]-NH2
19 | < 0.1 | H-HAKRRLF-NH2
20 | < 0.1 | H-HAKARLIF-NH2
21 | < 0.1 | H-HAKRALIF-NH2
22 | 0.6 | H-HAKRRL[Nva]F-NH2
23 | < 0.1 | H-H[Nva]KRRLIF-NH2
24 | 1.2 | H-His-Bug-Lys-Arg-Arg-Leu-Ile-Phe-NH2 (peptide)
25 | 1.7 | H-HVKRRLIF-NH2
26 | 0.2 | H-HIKRRLIF-NH2
27 | 0.8 | H-HAKRRLAF-NH2
28 | 0.6 | H-HAKRRLLF-NH2
29 | < 0.1 | H-His-Ser-Lys-Arg-Arg-Leu-Ile-D-Pse-OH (peptide)

Row | Relative activity, Cyclin A Binding | Substance
30 | < 0.1 | H-His-Ser-Lys-Arg-Arg-Leu-Ile-Pheol (peptide)
31 | < 0.1 | H-HAKRNLIF-NH2
32 | < 0.1 | H-His-Ala-Lys-Arg-Arg-Leu-Ile-Hof-NH2 (peptide)
33 | < 0.1 | H-HAKRR[Cha]IF-NH2
34 | < 0.1 | H-HAKQRLIF-NH2
35 | 0.2 | H-HAKRSLIF-NH2
36 | 0.2 | H-His-Ala-Lys-Arg-Arg-Leu-Ile-Dhp-OH (peptide)
37 | < 0.1 | H-HAKRRVIF-NH2
38 | 0.3 | H-HAKRRL[Nle]F-NH2
39 | 1.5 | H-HARRRLIF-NH2
40 | 0.2 | H-His-Ala-Lys-Arg-Arg-Leu-Ile-L-Pse-OH (peptide)
41 | 0.7 | H-His-Ala-Lys-Arg-Arg-Leu-Ile-2Nap-NH2 (peptide)
42 | 0.1 | H-HAKRRLIW-NH2
43 | 1.3 | H-H[Abu]KRRLIF-NH2
44 | 1.5 | H-HAKRRLVF-NH2
45 | 0.5 | H-His-Ala-Lys-Arg-Arg-Leu-1Nap-Phe-NH2 (peptide)

Second part, the substance before the results:

Row | Substance | Relative activity, Cyclin A Binding
46 | H-HALRRLIF-NH2 | 1.4
47 | H-HAKRRLIY-NH2 | 0.2
48 | H-His-Ala-Lys-Arg-Arg-1Nap-Ile-Phe-NH2 (peptide) | < 0.1
49 | H-HAKRRLI[Phe(4-F)]-NH2 | 5
50 | H-HAKRR[Nle]IF-NH2 | < 0.1
51 | H-His-Ala-Lys-Arg-Aib-Leu-Ile-Phe-NH2 (peptide) | < 0.1
52 | H-HAKRRLI[Cha]-NH2 | < 0.1
53 | H-HFKRRLIF-NH2 | 0.2
54 | H-His-Ser-Lys-Arg-Arg-Leu-Ile-L-Pse-OH (peptide) | < 0.1
55 | H-HAARRLIF-NH2 | 0.5
56 | H-HA[Nle]RRLIF-NH2 | 0.2
57 | H-HAKRRFIF-NH2 | < 0.1
58 | H-HAKRRIIF-NH2 | 0.2
59 | H-HAKRRLFF-NH2 | 0.4
60 | H-HAKRRLIK-NH2 | < 0.1
61 | H-HAKRRLI[Tic]-NH2 | < 0.1
62 | H-HGKRRLIF-NH2 | 0.1
63 | H-His-Ala-Lys-Arg-Arg-Leu-Ile-D-Pse-OH (peptide) | 0.1
64 | H-HAKRRLI[Phe(ol)] | 1
65 | H-HAKRRLIL-NH2 | < 0.1
66 | H-HA[Abu]RRLIF-NH2 | 0.2
67 | H-HAKRR[Nva]IF-NH2 | < 0.1
68 | H-H[Phg]KRRLIF-NH2 | < 0.1
69 | H-His-Ala-Lys-Hse-Arg-Leu-Ile-Phe-NH2 (peptide) | < 0.1
70 | H-His-Ala-Lys-Cit-Arg-Leu-Ile-Phe-NH2 (peptide) | 0.2
71 | H-His-Ala-Lys-Arg-Sar-Leu-Ile-Phe-NH2 (peptide) | < 0.1
